Test results: patent US20250243281A1 (IMMUNITAS THERAPEUTICS, published 2025)

T1: hCLEC2D (human, UniProt Q9UHP7 1-191)
T1 construct: Overexpressed on HEK293 or K562 cells; the same id is used for endogenous CLEC2D on NALM6 and Raji cells; also called LLT1
T1 sequence: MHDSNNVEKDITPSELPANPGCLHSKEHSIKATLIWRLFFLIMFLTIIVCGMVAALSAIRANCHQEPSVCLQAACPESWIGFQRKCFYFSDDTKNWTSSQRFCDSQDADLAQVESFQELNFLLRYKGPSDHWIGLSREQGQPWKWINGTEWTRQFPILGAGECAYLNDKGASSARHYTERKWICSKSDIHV

T2: hKLRF1 (human, UniProt Q9NZS2 1-231)
T2 construct: Overexpressed on HEK293 cells
T2 sequence: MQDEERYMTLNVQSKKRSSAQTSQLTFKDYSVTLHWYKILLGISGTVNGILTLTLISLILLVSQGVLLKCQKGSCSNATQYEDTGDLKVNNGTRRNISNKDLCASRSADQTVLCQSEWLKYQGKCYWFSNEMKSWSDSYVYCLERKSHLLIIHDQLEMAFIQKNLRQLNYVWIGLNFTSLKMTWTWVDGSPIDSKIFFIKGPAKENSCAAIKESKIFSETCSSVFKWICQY

T3: hKLRF2 (human, UniProt D3W0D1 1-207)
T3 construct: Overexpressed on HEK293 cells
T3 sequence: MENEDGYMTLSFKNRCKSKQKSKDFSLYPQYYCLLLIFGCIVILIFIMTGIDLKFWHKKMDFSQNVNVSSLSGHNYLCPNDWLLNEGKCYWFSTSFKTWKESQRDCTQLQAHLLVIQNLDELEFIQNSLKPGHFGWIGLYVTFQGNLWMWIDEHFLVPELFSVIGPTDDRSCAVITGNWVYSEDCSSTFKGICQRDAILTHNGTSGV

T4: hCLEC12B (human, UniProt Q2HXU8 1-276)
T4 construct: Overexpressed on HEK293 cells
T4 sequence: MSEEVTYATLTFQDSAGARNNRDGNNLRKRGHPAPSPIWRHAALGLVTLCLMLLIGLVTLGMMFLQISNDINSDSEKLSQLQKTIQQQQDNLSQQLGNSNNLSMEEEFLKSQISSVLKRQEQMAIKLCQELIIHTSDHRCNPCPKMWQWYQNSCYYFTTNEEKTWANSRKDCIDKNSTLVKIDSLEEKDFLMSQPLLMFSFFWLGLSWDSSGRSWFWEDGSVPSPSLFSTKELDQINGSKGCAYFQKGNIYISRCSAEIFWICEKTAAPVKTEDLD


How the values were obtained:
hCLEC2D [1] = biological target: T1, hCLEC2D; assay: flow cytometry, HEK293 transfectants, 100 nM antibody;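 further: antibody applied at a saturating level and incubated with cells for 30 min at room temperature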
Description: (§1) For the antibody binding assay, all cell lines were washed in phosphate-buffered saline with 0.1% bovine serum albumin (PBSA) and seeded in a 96 well plate at a density of 4×10⁴ cells per well. Washed cells were resuspended in 100 nM of antibody (a saturating concentration to measure maximum binding on cells) and incubated at room temperature for 30 minutes. […] Cells were analyzed by flow cytometry with a Thermo Fisher Attune flow cytometer.
(§2) Data were analyzed using FlowJo software. MFI for each sample was calculated and exported into Graphpad Prism.

hKLRF1 [2] = biological target: T2, hKLRF1; assay: as above
Description: as §1, §2

hKLRF2 [3] = biological target: T3, hKLRF2; assay: as above
Description: as §1, §2

hCLEC12B [4] = biological target: T4, hCLEC12B; assay: as above
Description: as §1, §2

hKLRF1 [5] = biological target: T2, hKLRF1; assay: flow cytometry; 100 nM antibody on HEK293 cells expressing KLRF1; Alexa Fluor 647 anti-human IgG; MFI
Description: as §1, §2

hKLRF2 [6] = biological target: T3, hKLRF2; assay: flow cytometry; 100 nM antibody on HEK293 cells expressing KLRF2; Alexa Fluor 647 anti-human IgG; MFI
Description: as §1, §2

hCLEC2D [7] = biological target: T1, hCLEC2D; assay: flow cytometry; 100 nM antibody on HEK293 cells expressing CLEC2D; Alexa Fluor 647 anti-human IgG; MFI
Description: as §1, §2

hCLEC12B [8] = biological target: T4, hCLEC12B; assay: flow cytometry; 100 nM antibody on HEK293 cells expressing CLEC12B; Alexa Fluor 647 anti-human IgG; MFI
Description: as §1, §2

human HSP70 = biological target: T5, human HSP70 (human, UniProt P0DMV8 1-641); assay: polyspecificity ELISA, coated HSP70, 100 nM antibody
T5 construct: polyspecificity reagent
T5 sequence (P0DMV8 whole entry): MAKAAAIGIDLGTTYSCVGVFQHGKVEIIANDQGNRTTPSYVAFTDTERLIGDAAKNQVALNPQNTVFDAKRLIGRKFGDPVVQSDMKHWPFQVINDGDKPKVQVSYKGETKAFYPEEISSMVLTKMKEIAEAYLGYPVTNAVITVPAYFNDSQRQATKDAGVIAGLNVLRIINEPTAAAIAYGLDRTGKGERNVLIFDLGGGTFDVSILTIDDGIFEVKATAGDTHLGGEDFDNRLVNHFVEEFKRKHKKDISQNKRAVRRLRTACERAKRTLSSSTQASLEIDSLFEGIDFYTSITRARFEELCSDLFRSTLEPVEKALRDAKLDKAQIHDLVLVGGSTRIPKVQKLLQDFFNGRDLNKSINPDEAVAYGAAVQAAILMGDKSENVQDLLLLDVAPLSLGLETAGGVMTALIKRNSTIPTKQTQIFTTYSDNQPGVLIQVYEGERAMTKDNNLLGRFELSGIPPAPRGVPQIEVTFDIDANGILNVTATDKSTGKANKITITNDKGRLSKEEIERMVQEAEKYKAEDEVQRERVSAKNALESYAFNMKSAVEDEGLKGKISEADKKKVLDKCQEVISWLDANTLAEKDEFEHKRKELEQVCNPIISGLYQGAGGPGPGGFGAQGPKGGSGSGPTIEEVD

Row | Binder | % of CD161 binding (hCLEC2D [1]) [%] | % of CD161 binding (hKLRF1 [2]) [%] | % of CD161 binding (hKLRF2 [3]) [%] | % of CD161 binding (hCLEC12B [4]) [%] | binding result (hKLRF1 [5]) | binding result (hKLRF2 [6]) | binding result (hCLEC2D [7]) | binding result (hCLEC12B [8]) | Norm (signal over AdalimumAb) (human HSP70) [fold]
1 | Ab5 (antibody, human IgG1, V domains shown, IgG purified from yeast culture) VH: EVQLLESGGGLVQPGGSLRLSCAASGFTFGQYAMSWVRQAPGKGLEWVSAISAVGGTTAYADSVKGRFTISRDNSKNTLYLQMNSLRAEDTAVYYCAKPLDSSLWADFQLWGRGTLVTVSS VL: DIQLTQSPSSVSASVGDRVTITCRASQDISSWLAWYQQKPGKAPKLLIYFASSLQSGVPSRFSGSGSGTDFTLTISSLQPEDFATYYCQQASKLPITFGGGTKVEIK | 0.872 | 0.059 | 0.035 | 0.056 | no binding (tested: 100 nM) | no binding (tested: 100 nM) | no binding (tested: 100 nM) | no binding (tested: 100 nM) | 
2 | Ab8 (antibody, human IgG1, V domains shown, IgG purified from yeast culture) VH: EVQLLESGGGLVQPGGSLRLSCAASGFTFGTFAMSWVRQAPGKGLEWVSAISGVGGTTYYADSVKGRFTISRDNSKNTLYLQMNSLRAEDTAVYYCAKPLDSSFWADFDLWGRGTLVTVSS VL: DIQLTQSPSSVSASVGDRVTITCRASQTISSWLAWYQQKPGKAPKLLIYAASSLQSGVPSRFSGSGSGTDFTLTISSLQPEDFATYYCQQQSVLPITFGGGTKVEIK | 0.846 | 0.031 | 0.038 | 0.049 | no binding (tested: 100 nM) | no binding (tested: 100 nM) | no binding (tested: 100 nM) | no binding (tested: 100 nM) | 
3 | Ab9 (antibody, human IgG1, V domains shown) VH: EVQLLESGGGLVQPGGSLRLSCAASGFTFSPYAMSWVRQAPGKGLEWVSAISASGGTTYYADSVKGRFTISRDNSKNTLYLQMNSLRAEDTAVYYCAKPLDSSFWADFDLWGRGTLVTVSS VL: DIQLTQSPSSVSASVGDRVTITCRASQGISSWLAWYQQKPGKAPKLLIYAASSLQSGVPSRFSGSGSGTDFTLTISSLQPEDFATYYCQQHSVLPITFGGGTKVEIK | 0.808 | 0.042 | 0.028 | 0.025 | no binding (tested: 100 nM) | no binding (tested: 100 nM) | no binding (tested: 100 nM) | no binding (tested: 100 nM) | 
4 | Ab6 (antibody, human IgG1, V domains shown, IgG purified from yeast culture) VH: EVQLLESGGGLVQPGGSLRLSCAASGFTFGQYAMSWVRQAPGKGLEWVSAISAAGGTTYYADSVKGRFTISRDNSKNTLYLQMNSLRAEDTAVYYCAKPLDSSQWADFDLWGRGTLVTVSS VL: DIQLTQSPSSVSASVGDRVTITCRASQGISSWLAWYQQKPGKAPKLLIYAASSLQSGVPSRFSGSGSGTDFTLTINSLQPEDFATYYCQQAWVLPITFGGGTKVEIK | 1.01 | 0.036 | 0.029 | 0.011 | no binding (tested: 100 nM) | no binding (tested: 100 nM) | no binding (tested: 100 nM) | no binding (tested: 100 nM) | 
5 | Ustekinumab (antibody, V domains shown) VH: EVQLVQSGAEVKKPGESLKISCKGSGYSFTTYWLGWVRQMPGKGLDWIGIMSPVDSDIRYSPSFQGQVTMSVDKSITTAYLQWNSLKASDTAMYYCARRRPGQGYFDFWGQGTLVTVSS VL: DIQMTQSPSSLSASVGDRVTITCRASQGISSWLAWYQQKPEKAPKSLIYAASSLQSGVPSRFSGSGSGTDFTLTISSLQPEDFATYYCQQYNIYPYTFGQGTKLEIK |  |  |  |  |  |  |  |  | 3.71
